Data reported in US20250263490A1 (VIB VZW, published 2025).

How the values were obtained:
[1] = biological target: T1, recombinant human domain 1-3His6 of the cation-independent mannose-6-phosphate receptor (human, UniProt P11717 41-467); assay: ELISA on coated antigen, 1st of 2 repeats
T1 construct: Biotinylated (NHS-PEG4-biotin) for BLI; Glycosylated; also called hDom1-3His6; hCI-M6PRD1-D3
Method: (§1) FIGS. 4A-4B. Affinity of anti-CI-M6PR VHHs for recombinant human CI-M6PR Domain 1-3His₆ determined by ELISA. A & B. Measurements for each of the 11 anti-CI-M6PR VHHs in serial dilution binding to the coated human CI-M6PR Domain 1-3His₆ antigen. Detection was performed using an anti-VHH antibody coupled to HRP, and measured as the absorbance of the TMB substrate at 450 nm, correlating to the amount of bound VHH as plotted at the Y-axis. The Log₁₀ concentrations of the serially diluted VHHs were plotted at the X-axis. […] A & B represent replicates but using a different concentration of human CI-M6PR Domain 1-3His₆ (in (FIG. 4A): 0-0.75 μM and in (FIG. 4B): 0-1 μM).
(§2) We evaluated the affinity of the VHHs against the hDom₁₋₃His₆ using ELISA. Coated hDom₁₋₃His₆ was incubated with serially diluted VHH that was afterwards detected using an anti-VHH antibody, coupled to HRP.

[2] = biological target: T1, recombinant human domain 1-3His6 of the …; assay: BLI at pH 7.4, 1st of 2 repeats
Method: (§3) For each of the 11 anti-CI-M6PR VHHs, a biolayer interferometry (BLI) experiment was performed in which the hDom₁₋₃His₆ was biotinylated and coupled to streptavidin biosensor tips. Afterwards, the tips were incubated with serially diluted VHHs during the association phase and dissociation was performed at pH 7.4. Similarly, dissociation was performed at pH 7.0, pH 6.0 and pH 5.0 as well after regeneration of the biosensor tips. […] The anti-CI-M6PR antibody (clone 2G11) and GBP were used as positive and negative controls, respectively.
(§4) Analysis of the binding kinetics was performed using an Octet Red96 (FortéBio) device with Streptavidin SA Biosensor tips (VWR 733-2145). Therefore, 1 mL of human domain₁₋₃His₆ (0.5 mg/mL in 50 mM MES, 150 mM NaCl, pH 6.5) was incubated at room temperature for 30 minutes with EZ-Link™ NHS-PEG4-Biotin (1 mg) (Thermo Fischer A39259) and NaHCO₃ (100 mM). Biotinylated human domain₁₋₃His₆ was purified using a Zeba spin desalting Column™ (7K MWCO, 2 mL, Thermo Fischer 89890) and 1 μg/mL was used for immobilization on the Streptavidin SA Biosensor tips. The loaded tips were dipped into a particular anti-CI-M6PR VHH solution, serially diluted in kinetics buffer (0.2M NaH₂PO₄, 0.1M Na⁺ citrate, 0.01% BSA, 0.002% Tween20, pH 7.4). This was followed by dissociation of the particular anti-CI-M6PR VHH in kinetics buffer of pH 7.4, followed by regeneration in Glycine (10 mM, pH 3) and neutralisation. Same cycle was repeated but the dissociation was performed at pH 7.0, 6.0, 5.0, 4.5 and 4.0. A reference well and reference sensors were subtracted from ligand sensors afterwards and Savitsky-Golay filtering was applied on the data. Fitting of the data was performed using a 1:1 model, grouped per pH of dissociation.

[3] = biological target: T1, recombinant human domain 1-3His6 of the …; assay: BLI exp 1, dissoc pH 7.4
Method: as §3, §4

[4] = biological target: T1, recombinant human domain 1-3His6 of the …; assay: BLI exp 1, dissoc pH 5
Method: as §3, §4

[5] = biological target: T1, recombinant human domain 1-3His6 of the …; assay: ELISA on coated antigen, 2nd of 2 repeats
Method: as §1, §2

[6] = biological target: T1, recombinant human domain 1-3His6 of the …; assay: BLI exp 2, dissoc pH 5
Method: as §3
Analysis of the binding kinetics was performed using an Octet Red96 (FortéBio) device with Streptavidin SA Biosensor tips (VWR, 733-2145). To this end, 1 mL of hCI-M6PR_D1-D3 (0.5 mg/mL in 50 mM MES, 150 mM NaCl, pH 6.5) was incubated at room temperature for 30 minutes with a two-fold molar excesses of EZ-Link™ NHS-PEG₄-Biotin (Thermo Fischer, A39259) and NaHCO₃ (100 mM, pH 8.3). Biotinylated hCIMPR_D1-D3 was purified using a Zeba spin desalting column (Thermo Fischer, 89890) and protein concentration was calculated by measuring the absorbance at 280 nm (extinction coefficient 50320 M¹ cm⁻¹). Two-fold biotin-labelled antigen was loaded on the tips (2.5 μg/mL) and subsequently dipped into a particular anti-CI-M6PR VHH-containing solution (ranging from 0-100 nM). Serial VHH dilutions were made in kinetics buffer (0.2 M Na₂HPO₄, 0.1 M Na⁺ citrate, 0.01% BSA, 0.002% Tween20, pH 7.4). After association (100 sec), dissociation was conducted (500 sec) for each anti-CI-M6PR VHH in the kinetics buffer, followed by biosensor regeneration in glycine (10 mM, pH 3) and neutralisation. The same cycle was repeated with dissociation performed in kinetics buffer of pH 7.0, 6.5, 6.0, 5.5, and 5.0.
A reference well and reference sensors were subtracted from ligand sensors afterwards and Savitsky-Golay filtering was applied on the data. Fitting of the data was performed using a 1:1 model, grouped per dissociation pH.

[7] = biological target: T1, recombinant human domain 1-3His6 of the …; assay: BLI at pH 7.4, 2nd of 2 repeats
[8] = biological target: T1, recombinant human domain 1-3His6 of the …; assay: BLI exp 1, dissoc pH 6
Method: as §3, §4

Binder	EC50 [1]	Kd [2]	koff [2]	kon [2]	Kd [3]	koff [3]	kon [3]	koff [4]	kon [4]	EC50 [5]	koff [6]	kon [6]	Kd [7]	koff [7]	kon [7]	koff [8]	kon [8]	Kd [4]	Kd [8]
anti-CI-M6PR VHH10 (VHH, His6-tagged; made in Pichia pastoris) VHH: QVQLQESGGGSVQAGGSLRLSCAPAGRTFSRIRMGWFRQAPGKEREFVAAISSGGLSYYADSMKGRFTISRDNAKNTVLLQMNSLEPDDTAVYYCAAVLNDYIDDYVARNPTLYDYWGQGTQVTVSS	0.0657 nM	46.3 nM	0.00177 s⁻¹	38100 M⁻¹ s⁻¹	46.3 nM	0.00177 s⁻¹	38100 M⁻¹ s⁻¹	0.0106 s⁻¹	91100 M⁻¹ s⁻¹	0.224 nM	0.0106 s⁻¹	91100 M⁻¹ s⁻¹	46.5 nM	0.00177 s⁻¹	38100 M⁻¹ s⁻¹	0.00205 s⁻¹	39100 M⁻¹ s⁻¹	–	–
anti-CI-M6PR VHH11 (VHH, His6-tagged; made in Pichia pastoris) VHH: QVQLQESGGGLVQAGDSLKLSCTASGPTFSEITGGWFRQVPGKEREFVASISSTGITTYYTDSVKGRFTVSRDNAKNTMYLQMNSLKPEDTGVYYCAARSTSRSIAITVGYDYWGQGTQVTVSS	0.249 nM	41.4 nM	0.00317 s⁻¹	76700 M⁻¹ s⁻¹	41.4 nM	0.00317 s⁻¹	76700 M⁻¹ s⁻¹	0.0253 s⁻¹	225000 M⁻¹ s⁻¹	30.5 nM	0.0253 s⁻¹	225000 M⁻¹ s⁻¹	51 nM	0.00391 s⁻¹	76700 M⁻¹ s⁻¹	0.00665 s⁻¹	195000 M⁻¹ s⁻¹	113 nM	34.2 nM
